# Measured values taken from PMC2817712, “Using Structural Information to Change the Phosphotransfer Specificity of a Two-Component Chemotaxis Signalling Complex” (PLoS Biology, 2010).
# Molecular target: T1, CheA3P1, the isolated P1 (Hpt, histidine-containing phosphotransfer) domain of CheA3 (residues 1-135), … (R. sphaeroides)
# T1 construct: Analyte in SPR and partner in the unphosphorylated crystal structure; also called Hpt domain of CheA3
# Assay: SPR; Biacore T100, 25°C; response regulator biotinylated in a C-terminal tag and held on streptavidin (200-1,500 RU); CheA3P1 injected at 120 nM to 2 mM; standard buffer (30 mM Hepes pH 7.5, 150 mM NaCl, 5 mM sodium acetate, 2 mM manganese chloride, 2 mM TCEP) with 0.05% Tween 20; equilibrium binding, 1:1 Langmuir model
# Settings: both partners purified
row,Kd [µM],Binder
1,> 1000,"CheY6(M13S) with an engineered C-terminal biotinylation tag, for SPR surfaces (natural protein, biotin within the engineered C-terminal tag (enzymatic)) PYNVMIVDDAASMRLYIASFIKTLPDFKVVAQAANGQEALDKLAAQPNVDLILLDIEMPVMDGMEFLRHAKLKTRAKICMLSSVAVSGSPHAARARELGADGVVAKPSGTVSHDLEEKTGGELARTMRTLMAA"
2,> 1000,"CheY6(M13S,L16S,Y17M) with an engineered C-terminal biotinylation tag, for SPR surfaces (natural protein, biotin within the engineered C-terminal tag (enzymatic)) PYNVMIVDDAASMRSMIASFIKTLPDFKVVAQAANGQEALDKLAAQPNVDLILLDIEMPVMDGMEFLRHAKLKTRAKICMLSSVAVSGSPHAARARELGADGVVAKPSGTVSHDLEEKTGGELARTMRTLMAA"
